Measurements reported in IntAct's records for PubMed 9428767.

B1: Guanine nucleotide-binding protein subunit beta (Saccharomyces cerevisiae), P18851 (parent)
chain: MAAHQMDSITYSNNVTQQYIQPQSLQDISAVEDEIQNKIEAARQESKQLHAQINKAKHKIQDASLFQMANKVTSLTKNKINLKPNIVLKGHNNKISDFRWSRDSKRILSASQDGFMLIWDSASGLKQNAIPLDSQWVLSCAISPSSTLVASAGLNNNCTIYRVSKENRVAQNVASIFKGHTCYISDIEFTDNAHILTASGDMTCALWDIPKAKRVREYSDHLGDVLALAIPEEPNSENSSNTFASCGSDGYTYIWDSRSPSAVQSFYVNDSDINALRFFKDGMSIVAGSDNGAINMYDLRSDCSIATFSLFRGYEERTPTPTYMAANMEYNTAQSPQTLKSTSSSYLDNQGVVSLDFSASGRLMYSCYTDIGCVVWDVLKGEIVGKLEGHGGRVTGVRSSPDGLAVCTGSWDSTMKIWSPGYQ
partner: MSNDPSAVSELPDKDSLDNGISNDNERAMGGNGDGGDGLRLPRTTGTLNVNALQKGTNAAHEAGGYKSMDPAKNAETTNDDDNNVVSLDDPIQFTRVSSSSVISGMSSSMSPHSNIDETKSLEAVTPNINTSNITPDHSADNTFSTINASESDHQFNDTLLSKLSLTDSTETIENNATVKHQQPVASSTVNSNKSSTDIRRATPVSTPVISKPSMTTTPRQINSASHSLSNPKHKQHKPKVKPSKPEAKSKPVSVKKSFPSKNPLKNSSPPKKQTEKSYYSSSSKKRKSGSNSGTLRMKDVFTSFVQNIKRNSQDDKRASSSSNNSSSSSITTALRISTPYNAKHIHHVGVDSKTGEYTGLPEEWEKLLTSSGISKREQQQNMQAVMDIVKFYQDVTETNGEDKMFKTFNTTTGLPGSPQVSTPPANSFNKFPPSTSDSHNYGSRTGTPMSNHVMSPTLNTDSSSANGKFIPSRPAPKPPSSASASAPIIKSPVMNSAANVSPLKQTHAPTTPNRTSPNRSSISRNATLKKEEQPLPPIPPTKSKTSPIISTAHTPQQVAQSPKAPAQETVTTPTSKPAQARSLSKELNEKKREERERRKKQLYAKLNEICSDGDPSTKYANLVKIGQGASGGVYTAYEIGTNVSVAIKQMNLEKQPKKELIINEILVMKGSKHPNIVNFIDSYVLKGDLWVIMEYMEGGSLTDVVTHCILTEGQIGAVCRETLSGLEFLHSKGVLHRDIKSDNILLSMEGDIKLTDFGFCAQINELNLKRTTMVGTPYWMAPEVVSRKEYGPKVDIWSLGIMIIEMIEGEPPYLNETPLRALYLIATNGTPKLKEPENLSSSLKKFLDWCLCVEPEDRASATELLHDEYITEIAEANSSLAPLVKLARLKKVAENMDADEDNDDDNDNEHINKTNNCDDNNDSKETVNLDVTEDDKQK
B2: Serine/threonine-protein kinase STE20 (Saccharomyces cerevisiae), Q03497 (parent)
chain: B1 partner
partner: B1 chain

Variants of: B1
Conditions: with ste20_yeast STE20, Q03497

**Q.** For K55D, which “effect of a mutation on the interaction” value is on record?
**A.** The value was “decreasing interaction”.

**Q.** For D62N, which “effect of a mutation on the interaction” value is on record?
**A.** The value was “decreasing interaction”.

Variants of: B2
Conditions: with gbb_yeast STE4, P18851

**Q.** For S879A;S880A;P883A, which “effect of a mutation on the interaction” value is on record?
**A.** Its value is “decreasing interaction”.
